For assay [1], the system named is colorectal tumour extranuclear membranes. The assay is described as follows: ELISA on extranuclear membranes of colorectal tumour. Conditions: one line per patient (1-7). Type of assay: binding. The protocol: • Tumour and normal membrane extract binding. Extranuclear extractions of colorectal and normal colonic membranes were produced and binding of SC104 was assayed by ELISA. Results
(In general: An ELISA detects its analyte on a solid surface through an enzyme-linked reagent.)

The nature of assay [2]: Blood group antigen ELISA, Lewis y. The class given is binding. Here is the method: The Lewis ^y hapten and the type I and type II H blood group antigen (Sigma, Poole, Dorset) were dried microtitre plates by overnight incubation at 37° C. Binding of SC104 mab was assayed by ELISA as described above.
The nature of assay [3]: HPTLC immunostaining of commercially available lipid standards. Type of assay: binding. The conditions noted are these: standards of Table 6 (lactosyl ceramide, Gb3, globoside, Forrsman, GM3, AGM1, GM1, GD3, GD1a, GD1b, GT1b). An excerpt: The SC104 antigen has been compared to a number of commercially available lipid standards. Examples of each standard were spotted onto HPTLC plates and developed in 50:40:10 chloroform:methanol:CaCl2 (0.5% w/v). Plates were also spotted with partially purified SC104 antigen. Migration of each standard was detected by iodine vapour staining and the location of each marked on the plate. Plates were then probed with SC104.

The next assay concerns C170 xenografts. The class given is in vivo. Here is the method: Prevention model. The colorectal tumour cell line, C170 was maintained in serial passage in nude mice. For therapy the mice were sacrificed and the tumours excised. The tumour was finely minced and […] pieces were implanted, under anaesthetic, subcutaneously into 30 male mice which had been randomly allocated to 4 experimental groups.
Mice were explanted with 3 mm^3 pieces of C170 xenografts. Groups of mice were treated with 5-FU/leucovorin (12.5 mg/Kg) by intravenous infusion on days 1, 3, 5, 7 and 28. On the same days mice were also injected intraperitonealy with 0.2 mg of SC104 mab. Control mice received either SC104 alone or control mouse IgG antibody with 5-FU/leucovorin. Tumour size was measured by callipers and tumour cross sectional area calculated on days 7, 9, 12, 14 and 16. Animals were weighed to assess the toxicity of treatment. At the termination of the experiment tumours were weighed to assess anti-tumour efficacy.

The test system of a further assay is C170 cells. The assay is described as follows: FACS antibody saturation on fresh and fixed cells. Type of assay: binding. The protocol: FACS on fresh and fixed cells. C170 cells (10^5) either fresh or fixed with 0.5% glutaraldehyde for 1 hr were resuspended in 100 μl of SC104 mab (0-100 μg/ml) and incubated on ice for 1 hr. After washing the samples 3 times in RPMI/10% FCS cells were incubated with FITC labelled rabbit anti-mouse (1/80: Dako Ltd, Bucks, UK) antibody and incubated on ice for 30 minutes prior to analysing by FACS as described above.

A further assay deals with C170 tumour cells. The assay is described as follows: Annexin/PI dual colour flow cytometry. The class given is cell-based. The conditions noted are these: concentration greater than 10 μg/ml; cells in suspension. The source says:
Annexin/PI. Tumour cells ([…]) or appropriate controls for 4 hr at room temperature could then also be stained with FITC labelled annexin and propidium iodide (Sigma, Poole, Dorset) and then analysed by dual colour flow cytometry.
(In flow cytometry, cells or beads pass a laser one at a time.)

For assay [4], the system named is pan caspase in C170 cells. The assay is described as follows: Pan caspase activation (FITC-FMK-vad, flow cytometry). Conditions: 30 μg/ml, up to 6 hrs; FIG. 17. The class given is cell-based. Here is the method: Pan caspase activation. 2×10^5 colorectal C170 cells were exposed to 30 μg/ml of SC104 for up to 6 hrs and pan caspase FITC-FMK-vad (caspACE FITC-vad-FMK, Promega, catalogue number G7462) employed to establish caspase activation. The cells were analysed by flow cytometry. Controls included a negative control murine antibody and a Fas antibody at 100 ng/ml.

The next assay has as its system C168. Kind of assay: Inhibition of cell growth, MTS. Type of assay: cell-based. Conditions: 30 μg/ml. The protocol:
(§1) Inhibition of cell growth. 1×10^3 colorectal C170, C168, C146, CaCO2, Colo205, LoVo and HT29 cells were aliquoted into individual wells of a flat bottomed 96-well plate and left to adhere overnight at 37° C. The following day the cells were treated with: 10, 3, 1, 0.3 and 0 μg/ml of SC104 mab. As a negative control 791T/36 at concentrations 100, 30, 10, 3 and 0 μg/ml, was titrated against each concentration of drug used. Triplicate wells were used. Cells were left for 5 days at 37° C. prior to the addition of MTS reagent to each well and optical density reading at 490 nm.

For a further assay, the system named is Colo205. Kind of assay: Inhibition of cell growth, MTS. The class given is cell-based. Here is the method:
as §1

The test system of the next assay is C170. Kind of assay: Inhibition of cell growth, MTS. The class given is cell-based. The protocol:
as §1

In a further assay the test system is CaCO2. The assay is described as follows: Inhibition of cell growth, MTS. The class given is cell-based. Conditions: 30 μg/ml. Here is the method:
as §1

The subject of the next assay is HT-29. The assay is described as follows: Inhibition of cell growth, MTS. The class given is cell-based. The conditions noted are these: 30 μg/ml. Here is the method: as §1
The next assay has as its system C146. The assay is described as follows: Inhibition of cell growth, MTS. Conditions: 30 μg/ml. The class given is cell-based. The protocol: as §1
The mark [5] stands for this setting: concentrations in excess of 10 μg/ml, FIG. 20.

Values joined by “and” are separate entries in the source; they are usually repeats but may differ in a detail not shown here. Identical values can stand only once. Like-named read-outs stand apart in the source and are kept apart here.

B1: SC104: mouse IgG1 monoclonal antibody specific for a sialyltetraosyl carbohydrate, raised by immunisation with colorectal cancer cell lines (antibody, V domains shown)
VH: DVQLQESGPDLVKPSQSLSLTCTVTGYSITSGYSWHWVRQFPGNKMEWMGHIHFSGRPTYNPSLSSRISITRDTSKNQFLLQLKFVTTEDTSTYFCARKGKGSDDGLNYWGQGISVTVSS
VL: ENVLTQSPVIMSASPGEKVTMTCSASSSLSYIHWYQQKSRTSPKLWIYDTSNLASGVPGRFSGSGSGNSYSLTISSMEAEDVATYYCFQGSEYPLTFGGGTKLEMT
On to B1, for which the “Binding of SC104 mab to extranuclear membranes: Colorectal Tumour” value in assay [1] was 0.221 and 0.278 and 0.196 and 0.281 and 0.102 and 0.001 and 0.437. The “Binding to blood group antigens by ELISA: Lewis ^y” value in assay [2] was 0.057 OD 405 nm. Moreover, the “recognition of lipid standards” value in assay [3] was “none of the standards were recognised by SC104”. For the same molecule, in the assay on C170 xenografts (Log Rank, FIG. 26b), the survival of mice result was “significant improvement of survival”. Further, the “inhibition of tumour growth of freshly explanted tumours” value with C170 xenografts (SC104 200 μg/dose ip, 5-FU/leucovorin at maximum tolerated dose, FIG. 26a) is on record as 50%. The “inhibition of tumour growth” value in the assay with C170 xenografts (day 9) is listed as 32%; in the assay with C170 xenografts (day 12), 44%; in the assay with C170 xenografts (day 14), 54%; in the assay with C170 xenografts (day 16) it was 62%. Also, the “number of SC104 haptens at the surface of C170 tumour cells” value with C170 cells is “approximately 4×10^5 sites per cell”. For the same molecule, the “antigen saturation on fresh and fixed cells” value in the assay with C170 cells (SC104 0-100 μg/ml, FIG. 22) was “not saturated even at SC104 concentration of 100 μg/ml”. The “cells staining with PI” value with C170 tumour cells is on record as 75%. Further, the “cells staining with annexin” value in the assay on C170 tumour cells turned out to be 30%. The “cells staining with both annexin and PI” value in the assay with C170 tumour cells turned out to be 65%. Besides, in assay [4], the pan caspase activation result is on record as “activates pan caspases after 5 hrs”. Besides, the “% inhibition of cell growth as measured by MTS staining” value in the assay on C168 was 55%; in the assay with Colo205 (30 μg/ml) it was 55%; in the assay with C170 (30 μg/ml), 70%; in the assay on CaCO2, 20%; in the assay on HT-29, 5%; in the assay on C146, 65%. Moreover, the “inhibition of growth of adherent cells (MTS)” value with Colo205 (setting [5]) and in the assay on C170 (setting [5]) was “inhibited growth” in each case.
